This passage reports flaA mRNA, RNA slot blot hybridization, HP1122-inactivated strain against wild type and fold decrease in flaA mRNA, RNA slot blot hybridization, HP1122-overexpressing N6 strain against wild type results from US20020192796A1.

For the assay, the target named is HP1032 protein, sigma28 factor of RNA polymerase (FliA) of Helicobacter pylori (Helicobacter pylori strain 26695). The assay is described as follows: cell-based or functional assay.

“HP1122 protein, anti-sigma28 factor (FlgM) of Helicobacter pylori” had a flaA mRNA, RNA slot blot hybridization, HP1122-inactivated strain against wild type of 2.5 fold and a fold decrease in flaA mRNA, RNA slot blot hybridization, HP1122-overexpressing N6 strain against wild type of 2 fold.
